In test [1] the target is C3d C3d (Homo sapiens) (UniProt P01024). Conditions: cited from earlier work.
The target in a further test is complement C3b (human) (UniProt P01024).
Test [2] deals with C3d C3d (Homo sapiens) (UniProt P01024). Conditions: cited from earlier work. This is another data set of the same source.

Read-outs that look alike come from different tables or passages of the source.

C3d C3d (Homo sapiens), sequence (P01024 1002-1303): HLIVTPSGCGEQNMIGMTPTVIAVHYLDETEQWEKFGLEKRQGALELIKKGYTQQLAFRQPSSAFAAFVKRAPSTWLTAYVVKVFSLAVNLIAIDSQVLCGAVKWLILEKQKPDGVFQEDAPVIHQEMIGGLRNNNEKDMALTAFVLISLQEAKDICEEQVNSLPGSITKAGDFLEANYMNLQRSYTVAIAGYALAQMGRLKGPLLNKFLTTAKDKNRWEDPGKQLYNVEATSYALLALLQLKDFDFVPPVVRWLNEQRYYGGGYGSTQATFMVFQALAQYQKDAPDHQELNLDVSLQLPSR
Efb-C (domain or fragment), sequence (A6QG59 101-165 limits assumed): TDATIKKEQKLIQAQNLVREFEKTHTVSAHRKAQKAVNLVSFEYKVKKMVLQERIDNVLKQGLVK
Efb Efb-C, sequence (P68799 101-165): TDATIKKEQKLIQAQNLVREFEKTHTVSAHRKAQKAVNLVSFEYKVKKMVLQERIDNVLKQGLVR

In the case of Efb Efb-C (from UniProt P68799), the dissociation constant (Kd) with C3d C3d (Homo sapiens) [1] is 0.8 nM. Regarding Efb-C (domain or fragment), in the test with complement C3b (human), the C3b left on serum-opsonized S. aureus after plasmin with 2 µM fragment, flow cytometry (amount without plasmin set to 100%) amounted to 38%. On the same count and under the same terms, with Sbi 3–4 (domain or fragment) the figure was 50%. For Sbi domains 3-4 (from UniProt A7X659), in the test with C3d C3d (Homo sapiens) [2], the Kd was 1400 nM.

As a reminder, the Kd is the free concentration of one partner at which half of the binding sites on the other are occupied at equilibrium, for simple one-to-one binding.

The values above are taken from article PMC3469469.
